Measured values reported in patent publication US20240301086A1 (APTEVO RESEARCH AND DEVELOPMENT, published 2024).

Columns and labels:
[1] = target: T1, Human PSMA ECD-AFH (TSC033), recombinant dimeric PSMA ECD (human, UniProt Q04609 44-750); assay: SPR (Biacore T200), human PSMA dimer ECD 10X His (TSC033), 1:1 fit
T1 construct: SEC-purified dimer; also called HuPSMA-AFH; Avi-His-Human PSMA ECD

mIgG Fc-cyno PSMA ECD = target: T2, mIgG Fc-cyno PSMA ECD (cynomolgus monkey); assay: SPR (Biacore T200), bispecific amine-coupled, mFc-PSMA dimer 1-81 nM as analyte, 1:1 fit
T2 construct: Called PSMA dimer in the SPR method; also called mFc-Cyno PSMA ECD; murine Fc-tagged cyno PSMA ECD
T2 chain: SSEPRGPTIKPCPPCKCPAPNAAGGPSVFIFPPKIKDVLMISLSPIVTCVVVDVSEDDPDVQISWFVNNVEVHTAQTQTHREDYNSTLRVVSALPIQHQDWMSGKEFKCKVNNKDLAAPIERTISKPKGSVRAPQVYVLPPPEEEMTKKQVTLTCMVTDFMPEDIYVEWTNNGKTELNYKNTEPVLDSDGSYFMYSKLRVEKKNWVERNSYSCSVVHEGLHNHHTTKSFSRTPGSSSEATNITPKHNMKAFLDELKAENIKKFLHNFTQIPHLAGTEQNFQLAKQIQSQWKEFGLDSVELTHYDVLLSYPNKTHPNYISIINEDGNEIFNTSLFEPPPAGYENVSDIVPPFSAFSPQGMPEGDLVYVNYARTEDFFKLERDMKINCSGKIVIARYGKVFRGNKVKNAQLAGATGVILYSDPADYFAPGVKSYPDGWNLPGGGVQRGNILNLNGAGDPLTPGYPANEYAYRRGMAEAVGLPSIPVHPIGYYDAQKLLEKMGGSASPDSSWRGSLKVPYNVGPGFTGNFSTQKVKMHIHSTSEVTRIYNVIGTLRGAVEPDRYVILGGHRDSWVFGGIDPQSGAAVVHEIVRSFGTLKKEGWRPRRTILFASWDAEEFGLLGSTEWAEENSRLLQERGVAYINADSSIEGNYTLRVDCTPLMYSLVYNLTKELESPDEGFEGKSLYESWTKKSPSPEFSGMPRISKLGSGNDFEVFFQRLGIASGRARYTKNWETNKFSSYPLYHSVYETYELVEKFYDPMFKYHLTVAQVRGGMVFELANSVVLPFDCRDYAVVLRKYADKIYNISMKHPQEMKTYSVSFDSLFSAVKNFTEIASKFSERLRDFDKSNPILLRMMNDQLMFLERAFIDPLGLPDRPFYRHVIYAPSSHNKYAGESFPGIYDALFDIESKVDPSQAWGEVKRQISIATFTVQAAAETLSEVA
Procedure: SPR studies were performed on a subset of bispecific constructs binding to Human and cynomolgus primate PSMA ectodomain (ECD) fused to the c-terminus of a murine IgG1 Fc region. These experiments were conducted at 25° C. in dPBS (Gibco, 14040-133) with 0.2% BSA buffer on a Biacore T200 system. Bispecific constructs were immobilized at a density of ˜2,000-4,000 response units (RU) onto individual flow cells of a CM5 research-grade sensor chip (GE) by standard amine coupling chemistry, leaving one flow cell surface unmodified as the reference. Using a multi-cycle kinetics mode, a buffer blank and […] different concentrations of the PSMA dimer ranging from 1 nM to 81 nM in dPBS with 0.2% BSA were sequentially injected through each flow cell at 30 μL/min for 300 seconds followed by a 600 second dissociation phase. Regeneration was achieved by injection of 10 mM glycine pH 2.0 at a flow rate of 30 μL/min for 40 seconds followed by dPBS with 0.2% BSA buffer stabilization for 1 min.
Sensorgrams obtained from kinetic SPR measurements were analyzed by the double subtraction method. The signal from the reference flow cell was subtracted from the analyte binding response obtained from flow cells with captured ligands. The buffer blank response was then subtracted from analyte binding responses and the final double-referenced data were analyzed with Biacore T200 Evaluation software (2.0, GE), globally fitting data to derive kinetic parameters. All sensorgrams were fitted using a simple one-to-one binding model.

[2] = target: T3, human Fcγ receptor IIA, R167 variant (human, UniProt P12318 36-218); assay: SPR (Biacore T200), construct amine-coupled, Fcγ receptor at 4-6 µM as analyte
T3 construct: also called Type IIA R167
T3 sequence (looked up): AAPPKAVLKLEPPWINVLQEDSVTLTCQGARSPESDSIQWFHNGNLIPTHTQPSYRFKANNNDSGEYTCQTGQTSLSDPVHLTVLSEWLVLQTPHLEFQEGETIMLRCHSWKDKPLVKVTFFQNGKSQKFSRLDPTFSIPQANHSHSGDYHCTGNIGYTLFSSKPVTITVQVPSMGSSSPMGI
Procedure: (§1) The Fc region incorporated into anti-PSMA bispecific constructs contained mutations intended to reduce or abolish binding to common human and cynomolgus Fc gamma receptors. SPR experiments were conducted at 25° C. in HBS-EP+ with 0.2% BSA buffer on a Biacore T200 system to evaluate the impact of these mutations on binding. For these experiments, three flow cells of a CM5 sensor chip were immobilized with anti-PSMA bispecifics by standard amine coupling to a response level of ˜2000 RU. A blank immobilization was performed on flow cell #1 for purposes of background signal subtraction. Both human and cynomolgus monkey Fcγ receptors (purchased from R&D Systems) were diluted in HBS-EP+ with 0.2% BSA to 4-6 μM and then flowed as analytes at 30 μL/min for 120 seconds followed by a 240 second dissociation step. No regeneration step was required. Blank-subtracted sensorgrams were visually inspected for binding to each of the Fcγ receptor proteins. […] Attenuated binding to Fcγ receptors IIA (both polymorphic variants) and IIB/C was observed. PSMA01107 and PSMA01108 share the same Fc amino acid sequence and therefore equivalent Fcγ receptor binding behavior was expected.

[3] = target: T4, human Fcγ receptor IIA, H167 variant (human, UniProt P12318 36-218); assay: as above
T4 sequence (looked up): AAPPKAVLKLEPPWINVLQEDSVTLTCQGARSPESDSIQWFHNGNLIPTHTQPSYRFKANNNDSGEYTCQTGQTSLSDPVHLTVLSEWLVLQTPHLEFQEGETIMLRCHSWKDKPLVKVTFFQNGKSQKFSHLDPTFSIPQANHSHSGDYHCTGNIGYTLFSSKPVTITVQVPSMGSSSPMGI
Procedure: as §1

human Fcγ receptor IIB/C = target: T5, human Fcγ receptor IIB/C (human, UniProt P31994 46-217); assay: as above
T5 sequence (looked up): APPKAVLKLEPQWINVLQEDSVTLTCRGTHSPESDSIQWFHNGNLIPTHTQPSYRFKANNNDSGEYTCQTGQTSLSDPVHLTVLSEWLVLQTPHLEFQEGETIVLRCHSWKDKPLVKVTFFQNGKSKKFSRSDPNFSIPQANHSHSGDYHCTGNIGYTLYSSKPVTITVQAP
Procedure: as §1

T1 sequence (Q04609 other isoform, or with tags, fused parts or gaps): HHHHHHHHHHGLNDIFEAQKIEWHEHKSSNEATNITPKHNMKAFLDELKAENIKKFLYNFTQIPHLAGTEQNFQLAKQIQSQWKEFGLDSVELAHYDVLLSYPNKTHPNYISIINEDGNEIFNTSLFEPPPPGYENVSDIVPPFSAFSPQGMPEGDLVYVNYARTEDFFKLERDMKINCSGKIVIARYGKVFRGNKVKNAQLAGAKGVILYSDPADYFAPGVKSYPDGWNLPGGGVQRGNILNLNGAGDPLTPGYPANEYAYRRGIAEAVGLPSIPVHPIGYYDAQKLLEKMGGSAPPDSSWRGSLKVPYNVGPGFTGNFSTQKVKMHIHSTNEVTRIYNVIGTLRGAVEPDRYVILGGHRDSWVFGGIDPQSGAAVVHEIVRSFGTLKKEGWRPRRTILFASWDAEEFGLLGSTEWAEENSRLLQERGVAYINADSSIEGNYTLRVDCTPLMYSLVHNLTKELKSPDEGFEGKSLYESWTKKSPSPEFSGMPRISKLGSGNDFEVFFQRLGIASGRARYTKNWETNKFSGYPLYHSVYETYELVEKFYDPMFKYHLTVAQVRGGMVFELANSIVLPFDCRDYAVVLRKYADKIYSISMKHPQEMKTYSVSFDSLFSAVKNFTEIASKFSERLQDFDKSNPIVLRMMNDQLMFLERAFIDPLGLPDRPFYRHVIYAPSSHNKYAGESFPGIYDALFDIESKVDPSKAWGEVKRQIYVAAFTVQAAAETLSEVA

B1: PSMA01107 Anti-PSMA scFv x Fc x linker x Anti CD3 scFv; Anti PSMA scFv x Fc (bispecific antibody)
chain 1: QVQLVQSGAEVKKPGASVKVSCKASGYTFTDYYMHWVRQAPGQGLEWMGYFNPYNDYTRYAQKFQGRVTMTRDTSTSTVYMELSSLRSEDTAVYYCARSDGYYDAMDYWGQGTTVTVSSGGGGSGGGGSGGGGSGGGGSDIQMTQSPSSLSASVGDRVTITCRASKSISKYLAWYQQKPGKAPKLLIHSGSSLESGVPSRFSGSGSGTEFTLTISSLQPDDFATYYCQQHIEYPWTFGQGTKVEIKEPKSSDKTHTCPPCPAPPAAAPSVFLFPPKPKDTLMISRTPEVTCVVVDVSHEDPEVKFNWYVDGVEVHNAKTKPREEQYNSTYRVVSVLTVLHQDWLNGKEYKCAVSNKALPAPIEKTISKAKGQPREPQVYTLPPSRDELTKNQVSLWCLVKGFYPSDIAVEWESNGQPENNYKTTPPVLDSDGSFFLYSKLTVDKSRWQQGNVFSCSVMHEALHNHYTQKSLSLSPGGGGSPSQVQLVQSGAEVKKPGASVKVSCKASGYTFTRSTMHWVRQAPGQGLEWIGYINPSSAYTNYAQKFQGRVTLTADKSTSTAYMELSSLRSEDTAVYYCASPQVHYDYNGFPYWGQGTLVTVSSGGGGSGGGGSGGGGSGGGGSDIQMTQSPSSLSASVGDRVTITCRASSSVSYMNWYQQKPGKAPKRWIYDSSKLASGVPSRFSGSGSGTDFTLTISSLQPEDFATYYCQQWSRNPPTFGQGTKVEIKRS
chain 2: QVQLVQSGAEVKKPGASVKVSCKASGYTFTDYYMHWVRQAPGQGLEWMGYFNPYNDYTRYAQKFQGRVTMTRDTSTSTVYMELSSLRSEDTAVYYCARSDGYYDAMDYWGQGTTVTVSSGGGGSGGGGSGGGGSGGGGSDIQMTQSPSSLSASVGDRVTITCRASKSISKYLAWYQQKPGKAPKLLIHSGSSLESGVPSRFSGSGSGTEFTLTISSLQPDDFATYYCQQHIEYPWTFGQGTKVEIKEPKSSDKTHTCPPCPAPPAAAPSVFLFPPKPKDTLMISRTPEVTCVVVDVSHEDPEVKFNWYVDGVEVHNAKTKPREEQYNSTYRVVSVLTVLHQDWLNGKEYKCAVSNKALPAPIEKTISKAKGQPREPQVYTLPPSRDELTKNQVSLSCAVKGFYPSDIAVEWESNGQPENNYKTTPPVLDSDGSFFLVSKLTVDKSRWQQGNVFSCSVMHEALHNHYTQKSLSLSPG
notes: Heterodimer, bivalent for PSMA and monovalent for CD3 (VH-VL scFv at the C-terminus); also called PSMA1107
Kd [1]: 2.6 nM
Kd (mIgG Fc-cyno PSMA ECD): 4.4 nM

B2: PSMA01108 Anti-PSMA scFv x Fc x linker x Anti CD3 scFv; Anti PSMA scFv x Fc (bispecific antibody)
chain 1: QVQLVQSGAEVKKPGASVKVSCKASGYTFTDYYMHWVRQAPGQGLEWMGYFNPYNDYTRYAQKFQGRVTMTRDTSTSTVYMELSSLRSEDTAVYYCARSDGYYDAMDYWGQGTTVTVSSGGGGSGGGGSGGGGSGGGGSDIQMTQSPSSLSASVGDRVTITCRASKSISKYLAWYQQKPGKAPKLLIHSGSSLESGVPSRFSGSGSGTEFTLTISSLQPDDFATYYCQQHIEYPWTFGQGTKVEIKEPKSSDKTHTCPPCPAPPAAAPSVFLFPPKPKDTLMISRTPEVTCVVVDVSHEDPEVKFNWYVDGVEVHNAKTKPREEQYNSTYRVVSVLTVLHQDWLNGKEYKCAVSNKALPAPIEKTISKAKGQPREPQVYTLPPSRDELTKNQVSLWCLVKGFYPSDIAVEWESNGQPENNYKTTPPVLDSDGSFFLYSKLTVDKSRWQQGNVFSCSVMHEALHNHYTQKSLSLSPGGGGSPSDIQMTQSPSSLSASVGDRVTITCRASSSVSYMNWYQQKPGKAPKRWIYDSSKLASGVPSRFSGSGSGTDFTLTISSLQPEDFATYYCQQWSRNPPTFGQGTKVEIKGGGGSGGGGSGGGGSGGGGSQVQLVQSGAEVKKPGASVKVSCKASGYTFTRSTMHWVRQAPGQGLEWIGYINPSSAYTNYAQKFQGRVTLTADKSTSTAYMELSSLRSEDTAVYYCASPQVHYDYNGFPYWGQGTLVTVSS
chain 2: QVQLVQSGAEVKKPGASVKVSCKASGYTFTDYYMHWVRQAPGQGLEWMGYFNPYNDYTRYAQKFQGRVTMTRDTSTSTVYMELSSLRSEDTAVYYCARSDGYYDAMDYWGQGTTVTVSSGGGGSGGGGSGGGGSGGGGSDIQMTQSPSSLSASVGDRVTITCRASKSISKYLAWYQQKPGKAPKLLIHSGSSLESGVPSRFSGSGSGTEFTLTISSLQPDDFATYYCQQHIEYPWTFGQGTKVEIKEPKSSDKTHTCPPCPAPPAAAPSVFLFPPKPKDTLMISRTPEVTCVVVDVSHEDPEVKFNWYVDGVEVHNAKTKPREEQYNSTYRVVSVLTVLHQDWLNGKEYKCAVSNKALPAPIEKTISKAKGQPREPQVYTLPPSRDELTKNQVSLSCAVKGFYPSDIAVEWESNGQPENNYKTTPPVLDSDGSFFLVSKLTVDKSRWQQGNVFSCSVMHEALHNHYTQKSLSLSPG
notes: also called PSMA1108; PSAM01108
binding result [2]: binds
binding result [3]: binds
binding result (human Fcγ receptor IIB/C): binds
